In PMC10952193, “Structure and Function of the α‐Hydroxylation Bimodule of the Mupirocin Polyketide Synthase” (Angewandte Chemie (Weinheim an Der Bergstrasse, Germany), 2023):

B1: Fre (enzyme, E. coli, UniProt P0AEN1 1-233, looked up)
chain: MTTLSCKVTSVEAITDTVYRVRIVPDAAFSFRAGQYLMVVMDERDKRPFSMASTPDEKGFIELHIGASEINLYAKAVMDRILKDHQIVVDIPHGEAWLRDDEERPMILIAGGTGFSYARSILLTALARNPNRDITIYWGGREEQHLYDLCELEALSLKHPGLQVVPVVEQPEAGWRGRTGTVLTAVLQDHGTLAEHDIYIAGRFEMAKIARDLFCSERNAREDRLFGDAFAFI
notes: Fre, NAD(P)H:flavin oxidoreductase of E. coli, GenBank M61182; also called oxidoreductase Fre; E. coli Fre; source: E. coli, recombinant, overexpressed, purified
B2: MupA (enzyme, Pseudomonas fluorescens, UniProt Q9AH80 1-369, looked up)
chain: MSVEQLLGLGVTNAARAPRQPAFSLLFFSDVREDISASEKYEFARSLTLFGDAQGFEAVYFPERHFHEFGAIYPDSAVMAASLIPQTRHIRFRTAGISLPLHHPARVVESWSMNDVLSGGRVDLGFGSGWSRPDFLLAPHAYEDRREVMWQRIEQVRRLWAGERLSFPGPGGDPVSVVTFPRPLQTSLNVWILVAQNTESFIAAGKAGFNVFTMLYGIDLPDLAEKIGLYRQARRDAGFDPASGRVTLMLHTLVGPDSAWVRRAVEAPFKDYIRSSLVAHMKARATPDGRPLDATEQENVLQYAFERYYETGALFGTVDEVRYRVGQVLETGVDEIACLMDFGVDYAVVHQSLPYLEQLVASFQERSAQ
notes: MupA, trans-acting flavin-dependent monooxygenase of the mupirocin biosynthetic gene cluster of Pseudomonas fluorescens; Dimeric by SEC; a dimer of dimers above 2 mg/ml; Used unlabelled in the NMR experiments; also called flavin-dependent monooxygenase (FMO); FMNH2-dependent oxygenase

How the values were obtained:
[1] = target: the molecule itself; assay: not stated; purification of recombinant Fre (Figure S6); how the dimer was shown is not told in the main text
[2] = target: the molecule itself; assay: SEC; size exclusion chromatography of purified MupA at higher concentrations (>2 mg/ml)
[3] = target: the molecule itself; assay: SEC; size exclusion chromatography of purified MupA (lower concentrations)

Protein | stoichiometry N [1] | stoichiometry N [2] | stoichiometry N [3]
B1 | 2 | – | –
B2 | – | 4 | 2
